The text below walks through data of paper PMC3654831 (Cell reports, 2012).

Where a chain is given by its changes, count along the chain named. Numbers in names are those of the source. Where “and” joins values, the source holds several entries; their conditions need not be identical. Equal entries are not always repeated.

T1: Get5 ubiquitin-like domain (Get5-UBL), wild type (S. cerevisiae, UniProt Q12285 74-151)
T1 sequence: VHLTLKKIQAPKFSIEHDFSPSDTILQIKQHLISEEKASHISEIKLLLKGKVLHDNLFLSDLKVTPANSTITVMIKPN

T2: polyhistidine-tagged Get5-UBL-C (S. cerevisiae)
T2 sequence (Q12285 whole entry, looked up): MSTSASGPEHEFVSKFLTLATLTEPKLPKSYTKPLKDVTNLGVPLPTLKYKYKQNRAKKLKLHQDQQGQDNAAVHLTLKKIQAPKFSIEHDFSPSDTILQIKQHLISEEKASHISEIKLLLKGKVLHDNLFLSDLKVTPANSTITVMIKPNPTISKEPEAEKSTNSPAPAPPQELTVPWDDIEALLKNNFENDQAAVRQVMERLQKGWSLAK

T3: polyhistidine-tagged Get5-UBL, wild type (S. cerevisiae, UniProt Q12285 74-151)
T3 sequence: T1 sequence

B1: Get5-UBL L120A (domain or fragment, S. cerevisiae)
chain: T1 sequence with L47A
B2: Sgt2 N-terminal homodimerization domain (Sgt2-N), wild type (domain or fragment, S. cerevisiae)
chain: SASKEEIAALIVNYFSSIVEKKEISEDGADSLNVAMDCISEAFGFEREAVSGILGKSEFKGQHLADILNSA
B3: Sgt2-N D31A (domain or fragment, S. cerevisiae)
chain: B2 chain with D30A
B4: Sgt2-N V35A (domain or fragment, S. cerevisiae)
chain: B2 chain with V34A
B5: Sgt2-N D28A (domain or fragment, S. cerevisiae)
chain: B2 chain with D27A
B6: Sgt2-N C39V (domain or fragment, S. cerevisiae)
chain: B2 chain with C38V
B7: Sgt2-N C39S (domain or fragment, S. cerevisiae)
chain: B2 chain with C38S

Data set [1] has as its target B2. Briefly: ITC.
Data set [2] deals with the molecule itself. Briefly: solution NMR structure.
Data set [3] has as its target T1, Get5 ubiquitin-like domain (Get5-UBL), …. Briefly: NMR exchange spectroscopy.
The target is the same in data set [4]. Briefly: NMR exchange spectroscopy. The source holds these as a separate data set.
Data set [5] addresses T2, polyhistidine-tagged Get5-UBL-C (S. cerevisiae). Briefly: SPR.
The target in data set [6] is T3, polyhistidine-tagged Get5-UBL, wild type. Briefly: SPR.
The target in data set [7] is T1, Get5 ubiquitin-like domain (Get5-UBL), …. Briefly: ITC.

Turning to B1, the “fold lower affinity than wild type” value in data set [1] came out at 1000 fold.

With B2, the “stoichiometry N” value in data set [2] is 2. Also, the kon in data set [3] was approximately 2e+08 M⁻¹ s⁻¹; in data set [5], 1.06e+07 M⁻¹ s⁻¹. For the same molecule, the off-rate constant (koff) in data set [4] was 7.5 s⁻¹ and 5.7 s⁻¹. The equilibrium dissociation constant (Kd) in data set [5] was found to be 0.749 µM; in data set [6] it was 3.78 µM.

Turning to B3, in data set [6], the binding result is “binds”.

Regarding B4, the “fold lower affinity than wild type” value in data set [7] is more than 100 fold.

In the case of B5, the binding result in data set [6] is given as “binds”.

B6: the “fold lower affinity than wild type” value in data set [7] came out at 100 fold.

As for B7, the “fold lower affinity than wild type” value in data set [7] is approximately 700 fold.
